Laboratory results: PMC8622166 (International Journal of Molecular Sciences, 2021)

Biological target: RAC3 (human, UniProt P60763 1-192)
Assay: stopped-flow fluorimetry; association (kobs) at one concentration: 2 µM GDI mixed with 0.2 µM mdGDP-bound RHO GTPase; 25 °C, 30 mM Tris/HCl pH 7.5, 10 mM K2HPO4/KH2PO4 pH 7.5, 5 mM MgCl2, 3 mM DTT
Settings: both partners purified

B1: GDI3ΔN20 (domain or fragment, human, UniProt Q99819 21-225, looked up)
chain: LCARVLLADKEGGPPAVDEVLDEAVPEYRAPGRKSLLEIRQLDPDDRSLAKYKRVLLGPLPPAVDPSLPNVQVTRLTLLSEQAPGPVVMDLTGDLAVLKDQVFVLKEGVDYRVKISFKVHREIVSGLKCLHHTYRRGLRVDKTVYMVGSYGPSAQEYEFVTPVEEAPRGALVRGPYLVVSLFTDDDRTHHLSWEWGLCICQDWKD
  binding result: binds
